± gives the standard deviation of the averaged measurements.
Test system: Saccharomyces cerevisiae
Assay: protein stability index of tFT-peptide fusion (C-terminal peptide) (PSI (0-1 scale)); higher = more stable (slower turnover)
Details: temperature: 30 C
Experimental: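 MPS profiling in S. cerevisiae of the yeast C-terminome library: the last 12 aa of each annotated ORF are fused to the C-terminus of a sfGFP-mCherry timer, after a GGGS linker. Cells are FACS-sorted into 8 mCherry/sfGFP bins and deep-sequenced. PSI runs from 0 (unstable) to 1 (stable); wild type and das1Δ backgrounds, two technical replicates each.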

[1] = genetic background: das1 deletion

Sequence: SLEAVSKMDKLA [AAT1 C-terminal 12 aa]
- protein stability index [1]: 0.723 ± 0.012
- protein stability index (genetic background: wild type): 0.679 ± 0.014

Sequence: SLQFIGEETSSL [YDL026W C-terminal 12 aa]
- protein stability index [1]: 0.708 ± 0.01
- protein stability index (genetic background: wild type): 0.684 ± 0.012

Sequence: SLSLRNHNSSQL [CLN1 C-terminal 12 aa]
- protein stability index [1]: 0.708 ± 0.024
- protein stability index (genetic background: wild type): 0.701 ± 0.017

Sequence: SNKLKGNPNQVF [MTG1 C-terminal 12 aa]
- protein stability index [1]: 0.721 ± 0.0079
- protein stability index (genetic background: wild type): 0.75045 ± 0.00033

Sequence: SNRILALGYILL [ATG32 C-terminal 12 aa]
- protein stability index [1]: 0.669 ± 0.0077
- protein stability index (genetic background: wild type): 0.658 ± 0.0079

Sequence: SNSLPKLKFHSM [OCA6 C-terminal 12 aa]
- protein stability index [1]: 0.725 ± 0.044
- protein stability index (genetic background: wild type): 0.681 ± 0.011

Sequence: SPKEEKRFKFKL [YGR127W C-terminal 12 aa]
- protein stability index [1]: 0.739 ± 0.046
- protein stability index (genetic background: wild type): 0.801 ± 0.047

Sequence: SPPEEESQHGDV [SHB17 C-terminal 12 aa]
- protein stability index [1]: 0.696 ± 0.022
- protein stability index (genetic background: wild type): 0.75 ± 0.032

Sequence: SQQNNNGNQNRY [RNQ1 C-terminal 12 aa]
- protein stability index [1]: 0.7168 ± 0.002
- protein stability index (genetic background: wild type): 0.6682 ± 0.0039

Sequence: SRSSIKNIVKPK [MRX15 C-terminal 12 aa]
- protein stability index [1]: 0.689 ± 0.048
- protein stability index (genetic background: wild type): 0.75 ± 0.052

Sequence: SSAASSQVPAST [PTK1 C-terminal 12 aa]
- protein stability index [1]: 0.694 ± 0.025
- protein stability index (genetic background: wild type): 0.6743 ± 0.0022

Sequence: SSDRSAAEKRNT [TYR1 C-terminal 12 aa]
- protein stability index [1]: 0.699 ± 0.029
- protein stability index (genetic background: wild type): 0.673 ± 0.039

Sequence: SSEEGYYIAGSI [IRC23 C-terminal 12 aa]
- protein stability index [1]: 0.8201 ± 0.0072
- protein stability index (genetic background: wild type): 0.81 ± 0.01

Sequence: SSGCRRLMVGYN [ERC1 C-terminal 12 aa]
- protein stability index [1]: 0.6979 ± 0.0017
- protein stability index (genetic background: wild type): 0.684 ± 0.0074

Sequence: SSKKNNKFRRIR [CST9 C-terminal 12 aa]
- protein stability index [1]: 0.685 ± 0.019
- protein stability index (genetic background: wild type): 0.714 ± 0.032

Sequence: SSVKKKLYPKSK [RIM11 C-terminal 12 aa]
- protein stability index [1]: 0.704 ± 0.015
- protein stability index (genetic background: wild type): 0.693 ± 0.073

Sequence: STDETPDNENKQ [SGT2 C-terminal 12 aa]
- protein stability index [1]: 0.6998 ± 0.0031
- protein stability index (genetic background: wild type): 0.67 ± 0.0077

Sequence: STDQLPELSFEV [TVP38 C-terminal 12 aa]
- protein stability index [1]: 0.699 ± 0.013
- protein stability index (genetic background: wild type): 0.722 ± 0.0051

Sequence: STFTLNLEDVSK [ECM12 C-terminal 12 aa]
- protein stability index [1]: 0.711 ± 0.0086
- protein stability index (genetic background: wild type): 0.634 ± 0.016

Sequence: STSCDVIQSRNA [MET22 C-terminal 12 aa]
- protein stability index [1]: 0.71 ± 0.03
- protein stability index (genetic background: wild type): 0.692 ± 0.0075

Sequence: SVLSGSAEFVFY [NCA3 C-terminal 12 aa]
- protein stability index [1]: 0.7188 ± 0.0024
- protein stability index (genetic background: wild type): 0.7148 ± 0.0061

Sequence: SVLVCFLLRRAS [YJR087W C-terminal 12 aa]
- protein stability index [1]: 0.506 ± 0.02
- protein stability index (genetic background: wild type): 0.342 ± 0.0095

Sequence: SVLYAIDFSAAF [EMA35 C-terminal 12 aa]
- protein stability index [1]: 0.717 ± 0.012
- protein stability index (genetic background: wild type): 0.703 ± 0.02

Sequence: SVPKPSQARFSV [UTR1 C-terminal 12 aa]
- protein stability index [1]: 0.684 ± 0.025
- protein stability index (genetic background: wild type): 0.703 ± 0.025

Sequence: SYKDTKRWMFKK [PSF3 C-terminal 12 aa]
- protein stability index [1]: 0.724 ± 0.057
- protein stability index (genetic background: wild type): 0.715 ± 0.078

Sequence: SYLKGYIGCKIS [YPR092W C-terminal 12 aa]
- protein stability index [1]: 0.745 ± 0.042
- protein stability index (genetic background: wild type): 0.569 ± 0.033

Sequence: TAFGISSCRDLA [YLR163W-A C-terminal 12 aa]
- protein stability index [1]: 0.707 ± 0.016
- protein stability index (genetic background: wild type): 0.6829 ± 0.00097

Sequence: TARPFPAPNIAA [YLR349W C-terminal 12 aa]
- protein stability index [1]: 0.728 ± 0.029
- protein stability index (genetic background: wild type): 0.67 ± 0.016

Sequence: TASQLLEVQSKS [YGL039W C-terminal 12 aa]
- protein stability index [1]: 0.68 ± 0.023
- protein stability index (genetic background: wild type): 0.6694 ± 0.006

Sequence: TDCGLETEEIDI [RAD14 C-terminal 12 aa]
- protein stability index [1]: 0.663 ± 0.025
- protein stability index (genetic background: wild type): 0.6823 ± 0.0022

Sequence: TDDNNIQTILLK [YIG1 C-terminal 12 aa]
- protein stability index [1]: 0.679 ± 0.012
- protein stability index (genetic background: wild type): 0.704 ± 0.044

Sequence: TEFEKIHRNTFN [REX4 C-terminal 12 aa]
- protein stability index [1]: 0.706 ± 0.012
- protein stability index (genetic background: wild type): 0.723 ± 0.033

Sequence: TEIDESFEMTDF [KEX1 C-terminal 12 aa]
- protein stability index [1]: 0.723 ± 0.021
- protein stability index (genetic background: wild type): 0.7471 ± 0.0064

Sequence: TGFFGKLKKLFK [CRP1 C-terminal 12 aa]
- protein stability index [1]: 0.762 ± 0.0086
- protein stability index (genetic background: wild type): 0.724 ± 0.0086

Sequence: TGFKDKFLDALL [PUT4 C-terminal 12 aa]
- protein stability index [1]: 0.689 ± 0.014
- protein stability index (genetic background: wild type): 0.69 ± 0.011

Sequence: TGLAGEGDTLVT [TAG1 C-terminal 12 aa]
- protein stability index [1]: 0.694 ± 0.007
- protein stability index (genetic background: wild type): 0.685 ± 0.021

Sequence: THLQQVAVSGQA [SEC23 C-terminal 12 aa]
- protein stability index [1]: 0.572 ± 0.0092
- protein stability index (genetic background: wild type): 0.618 ± 0.014

Sequence: THMKPWYRRWFW [INA17 C-terminal 12 aa]
- protein stability index [1]: 0.742 ± 0.012
- protein stability index (genetic background: wild type): 0.718 ± 0.018

Sequence: TIGWLQESLAGI [HOT1 C-terminal 12 aa]
- protein stability index [1]: 0.706 ± 0.0076
- protein stability index (genetic background: wild type): 0.684 ± 0.029

Sequence: TIISKGYAKIRD [TAF4 C-terminal 12 aa]
- protein stability index [1]: 0.68 ± 0.022
- protein stability index (genetic background: wild type): 0.7 ± 0.049

Sequence: TIKKGTTLEPIA [GCD11 C-terminal 12 aa]
- protein stability index [1]: 0.6896 ± 0.0033
- protein stability index (genetic background: wild type): 0.7 ± 0.028
